US20150098945A1 (Daiichi Sankyo, published 2015)
Blank lines part the entries; values can stand above or below the binder they belong to.

What was measured:
[1] = molecular target: T1, N-terminal FLAG-tagged cynomolgus monkey ROBO4, cynoROBO4-2 (pCI-FLAG-cynoROBO4-2) (cynomolgus monkey, UniProt Q8WZ75 28-1007 (human entry)); assay: flow cytometry (FC500), HEK293 cells transfected with pCI-FLAG-cynoROBO4-2, antibody at 10 µg/mL, FITC goat anti-human IgG Fc; control histogram IgG (human IgG)
T1 chain: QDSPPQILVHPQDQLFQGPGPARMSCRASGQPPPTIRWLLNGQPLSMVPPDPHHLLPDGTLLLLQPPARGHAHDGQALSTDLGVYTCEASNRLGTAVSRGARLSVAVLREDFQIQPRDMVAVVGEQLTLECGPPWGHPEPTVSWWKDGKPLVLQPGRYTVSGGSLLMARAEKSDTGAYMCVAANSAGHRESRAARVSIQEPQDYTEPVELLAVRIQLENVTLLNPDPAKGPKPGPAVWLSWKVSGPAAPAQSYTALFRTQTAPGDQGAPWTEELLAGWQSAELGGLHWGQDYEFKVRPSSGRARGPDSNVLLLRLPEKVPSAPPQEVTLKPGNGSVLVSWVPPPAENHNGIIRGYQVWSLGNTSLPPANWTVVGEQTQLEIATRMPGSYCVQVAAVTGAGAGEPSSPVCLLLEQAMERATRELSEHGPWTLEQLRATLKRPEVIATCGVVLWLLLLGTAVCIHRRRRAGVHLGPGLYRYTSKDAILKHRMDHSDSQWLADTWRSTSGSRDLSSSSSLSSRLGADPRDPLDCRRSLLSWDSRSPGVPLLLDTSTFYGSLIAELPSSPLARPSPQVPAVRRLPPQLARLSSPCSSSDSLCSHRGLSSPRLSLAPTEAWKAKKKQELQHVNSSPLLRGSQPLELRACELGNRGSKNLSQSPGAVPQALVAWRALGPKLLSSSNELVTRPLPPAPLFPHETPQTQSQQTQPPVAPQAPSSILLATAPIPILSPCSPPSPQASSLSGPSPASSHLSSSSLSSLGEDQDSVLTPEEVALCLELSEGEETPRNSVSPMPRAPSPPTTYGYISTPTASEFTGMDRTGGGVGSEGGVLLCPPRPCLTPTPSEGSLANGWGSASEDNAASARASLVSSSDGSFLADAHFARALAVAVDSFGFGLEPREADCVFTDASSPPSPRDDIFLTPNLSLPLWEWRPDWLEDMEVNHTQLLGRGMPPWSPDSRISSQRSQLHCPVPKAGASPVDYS

[2] = molecular target: T2, mouse ROBO4 (pCI-mROBO4-transfected HEK293 cells) (mouse, UniProt Q8C310 28-1012); assay: flow cytometry, HEK293 cells transfected with pCI-mROBO4, anti-mouse IgG FITC; control histogram IgG (Mouse IgG2a)
T2 sequence: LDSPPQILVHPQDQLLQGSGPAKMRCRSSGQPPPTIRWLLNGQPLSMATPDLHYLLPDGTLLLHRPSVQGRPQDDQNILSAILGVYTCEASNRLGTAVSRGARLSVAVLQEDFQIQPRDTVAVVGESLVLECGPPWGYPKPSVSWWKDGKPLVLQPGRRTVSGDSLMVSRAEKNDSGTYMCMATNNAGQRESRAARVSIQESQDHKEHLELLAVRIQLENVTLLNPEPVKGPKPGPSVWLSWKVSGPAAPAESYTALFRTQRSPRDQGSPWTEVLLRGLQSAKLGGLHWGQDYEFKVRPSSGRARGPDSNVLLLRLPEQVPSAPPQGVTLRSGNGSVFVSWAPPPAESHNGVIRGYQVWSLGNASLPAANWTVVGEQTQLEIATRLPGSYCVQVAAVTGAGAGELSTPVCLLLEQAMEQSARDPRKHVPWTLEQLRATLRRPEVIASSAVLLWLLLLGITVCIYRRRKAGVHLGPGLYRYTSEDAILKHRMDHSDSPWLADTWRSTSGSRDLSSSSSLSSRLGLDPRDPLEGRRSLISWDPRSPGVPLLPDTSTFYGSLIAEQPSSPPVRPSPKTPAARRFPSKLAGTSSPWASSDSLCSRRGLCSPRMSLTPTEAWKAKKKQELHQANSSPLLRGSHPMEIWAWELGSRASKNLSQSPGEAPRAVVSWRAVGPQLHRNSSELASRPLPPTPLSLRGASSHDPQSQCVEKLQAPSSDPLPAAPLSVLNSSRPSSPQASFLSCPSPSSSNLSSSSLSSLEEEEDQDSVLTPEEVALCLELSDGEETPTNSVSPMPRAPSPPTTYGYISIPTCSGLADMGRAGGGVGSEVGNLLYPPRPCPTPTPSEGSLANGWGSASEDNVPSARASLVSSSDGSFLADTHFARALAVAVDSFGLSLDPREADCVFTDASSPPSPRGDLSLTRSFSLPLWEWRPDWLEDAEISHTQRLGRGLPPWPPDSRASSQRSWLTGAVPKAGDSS
Description: HEK293 cells were inoculated at a concentration of 1.5×10⁶ cells/dish to a 60-mm dish (manufactured by Corning Inc.) and cultured overnight in a DMEM medium containing 10% FBS at 37° C. under 5% CO₂ conditions. On the next day, the HEK293 cells were transfected with pCI-hROBO4, pCI-mROBO4, pCI-raROBO4, pCI-FLAG-cynoROBO4-1, pCI-FLAG-cynoROBO4-2, pCI-hROBO1, pCI-hROBO2, or pCI-hROBO3 using FuGENE6 Transfection Reagent and further cultured overnight at 37° C. under 5% CO₂ conditions. On the next day, the expression vector-transfected cells were treated with TrypLE Express (manufactured by Life Technologies Corp.), washed with PBS containing 5% FBS, and then suspended in PBS containing 5% FBS. The obtained cell suspension was used in flow cytometry analysis.
Each cell suspension prepared in 4)-3-1 was centrifuged, and the supernatant was removed. Then, MAb1 or a negative control Mouse IgG2a was added at a concentration of 10 μg/mL to 2×10⁵ expression vector-transfected cells, and the resulting suspension was left standing at 4° C. for 1 hour. […] Data was analyzed using Flowjo. The histogram of FITC fluorescence intensity was prepared. The antibody was determined to bind in a cross-species manner when the histogram of MAb1 was shifted to a stronger fluorescence intensity region compared with the histogram of the negative control Mouse IgG2a.

- binding result [1]: binds
B1: humanized MAb1 antibody H-2140 (antibody, human IgG2, kappa, V domains shown)
VH: EVQLVESGGGLVQPGGSLRLSCAASGFTFSTYAMSWVRQAPGKRLEWVATISQGGTYTYYPDSVKGRFTISRDNAKNTLYLQMNSLRAEDTAVYYCARLIYYDYLDYWGQGTLVTVSS
VL: DIVMTQSPLSLPVTLGEPASISCRSSQSLENSNGNTYLNWYLQKPGQSPQLLIYRVSNRFSGVPDRFSGSGSGTDFTLKISRVEAEDVGVYYCLQVTHVPWTFGPGTKVDIKR
notes: Human IgG2 / kappa constant regions; also called hMAb1-H4-type heavy chain + hMAb1-L1-type light chain

- binding result [2]: no binding (tested: 10 µg/mL)
B2: anti-ROBO4 mouse monoclonal antibody MAb1 (antibody, mouse IgG1, V domains shown)
VH: EVQLVESGGGLVKPGGSLKLSCAASGFTFSTYAMSWVRQTPEKRLEWVATISNGGTYTYYPDSVKGRFTISRDNAENTLYLQMSSLRSEDTAMYFCARLIYYDYLDYWGHGTTLTVSS
VL: DAVMTQTPLSLPVSLGDQASISCRSSQSLENSNGNTYLNWYFQKPGQSPQLLIYRVSNRFSGVLDRFSGSGSGTDFTLKISRVEAEDFGVYFCLQVTHVPWTFGGGTKLEIKR
notes: Mouse IgG1 (gamma1), kappa light chain, purified from hybridoma supernatant; also called parent antibody MAb1
